# T1: BGL2 (Clavispora sp. NRRL Y-50464, UniProt A0A141S030)
# T1 construct: C-terminal His tag, vector pPICZalphaA, expressed in Pichia X33; partially purified by Ni-NTA; GH3
# T1 sequence (A0A141S030 1-804): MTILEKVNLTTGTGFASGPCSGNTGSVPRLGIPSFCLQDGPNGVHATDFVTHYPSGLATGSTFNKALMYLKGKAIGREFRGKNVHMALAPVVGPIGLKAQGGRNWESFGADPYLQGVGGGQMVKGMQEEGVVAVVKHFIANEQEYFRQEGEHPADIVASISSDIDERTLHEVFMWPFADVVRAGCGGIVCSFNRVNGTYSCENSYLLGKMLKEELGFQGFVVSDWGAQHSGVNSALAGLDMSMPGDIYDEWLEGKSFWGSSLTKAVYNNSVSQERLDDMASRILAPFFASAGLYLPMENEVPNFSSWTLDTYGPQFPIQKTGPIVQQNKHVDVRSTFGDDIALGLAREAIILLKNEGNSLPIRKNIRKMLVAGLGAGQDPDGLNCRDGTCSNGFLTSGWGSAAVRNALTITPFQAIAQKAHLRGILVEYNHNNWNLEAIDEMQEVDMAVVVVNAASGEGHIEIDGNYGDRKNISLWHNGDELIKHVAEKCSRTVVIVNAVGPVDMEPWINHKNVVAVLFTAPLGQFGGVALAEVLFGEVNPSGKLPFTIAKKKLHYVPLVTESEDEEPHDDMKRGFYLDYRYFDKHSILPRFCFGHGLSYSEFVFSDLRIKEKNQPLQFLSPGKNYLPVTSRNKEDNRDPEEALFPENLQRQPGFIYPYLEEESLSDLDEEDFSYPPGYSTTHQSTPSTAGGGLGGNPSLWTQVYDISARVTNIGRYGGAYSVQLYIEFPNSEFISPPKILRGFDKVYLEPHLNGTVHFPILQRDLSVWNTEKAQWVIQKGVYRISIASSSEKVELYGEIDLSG
# T2: BGL3 (Clavispora sp. NRRL Y-50464, UniProt A0A141S029)
# T2 construct: C-terminal His tag, vector pPICZalphaB, expressed in Pichia X33; partially purified by Ni-NTA; GH3
# T2 sequence (A0A141S029 1-837): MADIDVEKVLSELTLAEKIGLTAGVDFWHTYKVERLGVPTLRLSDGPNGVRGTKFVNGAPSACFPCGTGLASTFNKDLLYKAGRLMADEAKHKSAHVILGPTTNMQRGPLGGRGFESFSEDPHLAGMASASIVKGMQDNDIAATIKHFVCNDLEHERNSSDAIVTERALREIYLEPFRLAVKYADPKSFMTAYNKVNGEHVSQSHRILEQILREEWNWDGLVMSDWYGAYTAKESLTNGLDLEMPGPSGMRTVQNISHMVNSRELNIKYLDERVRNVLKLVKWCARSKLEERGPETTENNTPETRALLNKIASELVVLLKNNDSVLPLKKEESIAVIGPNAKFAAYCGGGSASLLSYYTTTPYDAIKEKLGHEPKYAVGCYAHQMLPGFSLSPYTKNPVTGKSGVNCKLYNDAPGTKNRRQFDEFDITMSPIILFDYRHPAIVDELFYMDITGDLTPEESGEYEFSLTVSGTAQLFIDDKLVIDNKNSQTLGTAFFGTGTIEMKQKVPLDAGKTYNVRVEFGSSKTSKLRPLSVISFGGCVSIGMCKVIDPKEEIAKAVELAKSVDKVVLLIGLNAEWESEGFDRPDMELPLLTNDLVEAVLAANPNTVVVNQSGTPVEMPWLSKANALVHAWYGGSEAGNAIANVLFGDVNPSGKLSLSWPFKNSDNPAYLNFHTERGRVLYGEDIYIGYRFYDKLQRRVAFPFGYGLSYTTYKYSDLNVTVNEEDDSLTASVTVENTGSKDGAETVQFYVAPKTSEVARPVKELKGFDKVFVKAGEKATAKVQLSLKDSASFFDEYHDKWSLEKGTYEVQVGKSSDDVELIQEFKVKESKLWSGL
# Tests used:
# BGL2 = target: T1, BGL2; test: pNPG hydrolysis, absorbance at […] nm; type: biochemical; details: product inhibition; substrate pNPG; 100 mM citrate buffer, optimal pH and temperature (pH 5, 50°C); read-out: K i (mM) (against glucose)
# BGL3 = target: T2, BGL3; test: pNPG hydrolysis, absorbance at […] nm; type: biochemical; details: product inhibition; substrate pNPG; 100 mM citrate buffer, optimal pH and temperature (pH 5, 55°C); read-out: K i (mM) (against glucose)
# purified protein = substrate: O=[N+]([O-])c1ccc(O[C@@H]2O[C@H](CO)[C@@H](O)[C@H](O)[C@H]2O)cc1; test: purified protein; details: 100 mM citrate buffer
Ki (BGL2) [mM],Ki (BGL3) [mM],Molecule,Km (purified protein) [µM],Vmax (purified protein) [µmol/min/mg],kcat (purified protein) [s⁻¹],kcat/Km (purified protein) [M⁻¹ s⁻¹]
62 ± 2.49,38.3 ± 1.15,OC[C@H]1OC(O)[C@H](O)[C@@H](O)[C@@H]1O (stereo partly shown) [glucose],–,–,–,–
–,–,BGL3 (Clavispora sp. NRRL Y-50464) (protein) MADIDVEKVLSELTLAEKIGLTAGVDFWHTYKVERLGVPTLRLSDGPNGVRGTKFVNGAPSACFPCGTGLASTFNKDLLYKAGRLMADEAKHKSAHVILGPTTNMQRGPLGGRGFESFSEDPHLAGMASASIVKGMQDNDIAATIKHFVCNDLEHERNSSDAIVTERALREIYLEPFRLAVKYADPKSFMTAYNKVNGEHVSQSHRILEQILREEWNWDGLVMSDWYGAYTAKESLTNGLDLEMPGPSGMRTVQNISHMVNSRELNIKYLDERVRNVLKLVKWCARSKLEERGPETTENNTPETRALLNKIASELVVLLKNNDSVLPLKKEESIAVIGPNAKFAAYCGGGSASLLSYYTTTPYDAIKEKLGHEPKYAVGCYAHQMLPGFSLSPYTKNPVTGKSGVNCKLYNDAPGTKNRRQFDEFDITMSPIILFDYRHPAIVDELFYMDITGDLTPEESGEYEFSLTVSGTAQLFIDDKLVIDNKNSQTLGTAFFGTGTIEMKQKVPLDAGKTYNVRVEFGSSKTSKLRPLSVISFGGCVSIGMCKVIDPKEEIAKAVELAKSVDKVVLLIGLNAEWESEGFDRPDMELPLLTNDLVEAVLAANPNTVVVNQSGTPVEMPWLSKANALVHAWYGGSEAGNAIANVLFGDVNPSGKLSLSWPFKNSDNPAYLNFHTERGRVLYGEDIYIGYRFYDKLQRRVAFPFGYGLSYTTYKYSDLNVTVNEEDDSLTASVTVENTGSKDGAETVQFYVAPKTSEVARPVKELKGFDKVFVKAGEKATAKVQLSLKDSASFFDEYHDKWSLEKGTYEVQVGKSSDDVELIQEFKVKESKLWSGL,180 ± 20,1.63,1.4,7710
–,–,BGL2 (Clavispora sp. NRRL Y-50464) (protein) MTILEKVNLTTGTGFASGPCSGNTGSVPRLGIPSFCLQDGPNGVHATDFVTHYPSGLATGSTFNKALMYLKGKAIGREFRGKNVHMALAPVVGPIGLKAQGGRNWESFGADPYLQGVGGGQMVKGMQEEGVVAVVKHFIANEQEYFRQEGEHPADIVASISSDIDERTLHEVFMWPFADVVRAGCGGIVCSFNRVNGTYSCENSYLLGKMLKEELGFQGFVVSDWGAQHSGVNSALAGLDMSMPGDIYDEWLEGKSFWGSSLTKAVYNNSVSQERLDDMASRILAPFFASAGLYLPMENEVPNFSSWTLDTYGPQFPIQKTGPIVQQNKHVDVRSTFGDDIALGLAREAIILLKNEGNSLPIRKNIRKMLVAGLGAGQDPDGLNCRDGTCSNGFLTSGWGSAAVRNALTITPFQAIAQKAHLRGILVEYNHNNWNLEAIDEMQEVDMAVVVVNAASGEGHIEIDGNYGDRKNISLWHNGDELIKHVAEKCSRTVVIVNAVGPVDMEPWINHKNVVAVLFTAPLGQFGGVALAEVLFGEVNPSGKLPFTIAKKKLHYVPLVTESEDEEPHDDMKRGFYLDYRYFDKHSILPRFCFGHGLSYSEFVFSDLRIKEKNQPLQFLSPGKNYLPVTSRNKEDNRDPEEALFPENLQRQPGFIYPYLEEESLSDLDEEDFSYPPGYSTTHQSTPSTAGGGLGGNPSLWTQVYDISARVTNIGRYGGAYSVQLYIEFPNSEFISPPKILRGFDKVYLEPHLNGTVHFPILQRDLSVWNTEKAQWVIQKGVYRISIASSSEKVELYGEIDLSG,80 ± 10,5.27,9.13,114000 ± 1570
